16 molecules from article PMC12377726 (Proceedings of the National Academy of Sciences of the …, 2025) can be followed below.

B1: G001_gp1_V10_VRC01c_2021-0127 (antibody, V domains shown)
VH: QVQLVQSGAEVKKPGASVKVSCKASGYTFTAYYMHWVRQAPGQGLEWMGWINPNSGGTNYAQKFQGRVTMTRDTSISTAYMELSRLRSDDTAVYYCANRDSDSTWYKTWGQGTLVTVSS
VL: DIQMTQSPSSLSASVGDRVTITCQASQDITNHLNWYQQKPGKAPKLLIYDASNLETGVPSSFSGSGSGTDFTFTISSLQPEDVATYYCQQYVTFGGGTKVEIK
B2: G001_gp1_V10_VRC01c_2021-0134 (antibody, V domains shown)
VH: QVQLVQSGAEVKKPGASVKVSCEASGYTFTGSYMHWVRQAPGQGLEWMGWINPNSGGTNYAQKFQGRVTMTRDTSITTAYMELSRLRSDDTAVYYCATRAAATNWYFDLWGRGTLVTVSS
VL: B1 VL with T30N, P44L, E55Q, S61R, V83I, V92E, T93F, K103G
B3: G001_gp1_V10_VRC01c_2021-0132 (antibody, V domains shown)
VH: QVQLVQSGAEVKKPGASVKVSCQASGYTFTAYHMHWVRQAPGQGLEWMGWINPTSGGTNYAQKFQGRVTMTRDTSITTAYMDLTRLRSDDTAVYYCARHRGGWFFDLWGRGTLVTVSS
VL: B1 VL with T30S, H32Y, K45N, T56A, S61R, V83I, V92E, G96Q, V100L, K103R
B4: G001_gp1_V10_VRC01c_2021-0130 (antibody, V domains shown)
VH: QVQLVQSGAEVKKPGASVKVSCKASGYTFTGYYMHWVRQAPGQGLEWMGWINPKSGGTNYAQKFQDWVTMTRDTSISTAYMELSRLRSDDTAVYYCARARVEPGSSWLWGYWGQGTLVTVSS
VL: B1 VL with T30S, H32Y, A51V, S61R, V83I, V92E
B5: G001_gp1_V10_VRC01c_2021-0136 (antibody, V domains shown)
VH: QVQLVQSGAEVKKPGASVKVSCTASGYTFTGYYMHWVRQAPGQGLEWMGWINPNSGGTNYAQKFQGWVTMTRDTSINTAYMELSRLRSDDTAVYYCARARSGYSSGWYWAYWGQGTLVTVSS
VL: B1 VL with T30S, S61R, V83I, V92E, T93F, K103T
B6: G001_gp1_V10_VRC01c_2021-0133 (antibody, V domains shown)
VH: QVQLVQSGPEVKKPGASVKVSCTASGFSFTGYYIHWLRQAPGPGLEWMGWINPNSGGTNYAQIFQDRVTMTRDTSISTAYMELSRLRSDDTAVYYCARVSVTTVWYFDLWGRGTLVTVSS
VL: B1 VL with T30S, H32Y, A51V, S52F, S61R, V83I, V92E
B7: G001_gp1_V10_VRC01c_2021-0128 (antibody, V domains shown)
VH: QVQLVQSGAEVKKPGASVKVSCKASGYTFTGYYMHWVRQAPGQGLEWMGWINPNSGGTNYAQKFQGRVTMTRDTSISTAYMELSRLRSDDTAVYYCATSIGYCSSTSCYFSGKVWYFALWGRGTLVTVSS
VL: B1 VL with T30S, H32Y, K45N, S61R, S76T, V83I, V92E, G96Q, K99N, V100L
B8: G001_gp1_V10_VRC01c_2021-0137 (antibody, V domains shown)
VH: QVQLVQSGAEVKKPGASVKVSCKASGYTFTGYYMYWVRQAPGQGFEWMGWLNPNSGGTNYAQKFQGRVTMTRDTSISTAYMELSRLRSDDTAVYYCARVTSGSGWAFDYWGQGTLVTVSS
VL: B1 VL with T30S, H32N, A51V, S61R, V83I, V92G
B9: G001_gp1_V10_VRC01c_2021-0135 (antibody, V domains shown)
VH: QVQLVQSGAEVKKPGASVKVSCKASGYTFTDYYMHWVRQAPGQGLEWMGWINPSSGGTNYAQKFQDWVTMTRDTSISTAYMELSRLRSDDTAVYYCATVAPAAATWGFDSWGQGTLVTVSS
VL: DIQTTQSPSSLSASVGDRVTITCQASQDISNHLNWYQQKPGKGPKLLIYDASNLKTGVPSRFSGSGSGTDFTFIISSLQPEDIATYYCQQYEFFGPGTKVDIK
B10: G001_gp1_V10_VRC01c_2021-0131 (antibody, V domains shown)
VH: QVQLVQSGAEVKKPGASVKVSCEASGYTFTDYYIHWVRQAPGQGLEWMGWINPSSGGTNYAQKFQGWVTMTRDTSISTAYMELSRLTSDDTAFYYCARGLGRQWEWGYWGQGTLVTVSS
VL: DIQMTQSPPSLSASVGDRVTITCQASQDISKYLNWYQQKAGKAPKLLIYDVSNLETGVPSRFSGSGSGTDFTFTISSLQPEDIATYYCQQYEFFGQGTRLEIK
B11: G001_gp1_V10_VRC01c_2021-0125 (antibody, V domains shown)
VH: QVQLVQSGAEVKKPGASVKVSCKASGYTFTGYYIHWVRQAPGQGLEWMGWLNPNSGGTNYLQKFQDRVTMTRDTSIGTAYMELSTLRSDDTAVYYCARGNSGPWAWRYWGQGTLVTVSS
VL: QSALTQPASVSGSPGQSITISCTGTSSDVGGYNSVSWYQQHPGKAPKLMIYDVSNRPSGVSNRFSGSKSGNTASLTISGLQPEDEADYYCSSYEVFGGGTKLTVL
B12: G001_gp1_V10_VRC01c_2021-0126 (antibody, V domains shown)
VH: QVQLVQSGAEVKKPGASVKVSCKASESTFTDYYMHWVRQAPGQGLEWMGWMNPNSGGTNYALKFQGRVTMTRDTSISTAYMELSRLRSDDTAVYYCATKRRGTYFDQWGQGTLVTVSS
VL: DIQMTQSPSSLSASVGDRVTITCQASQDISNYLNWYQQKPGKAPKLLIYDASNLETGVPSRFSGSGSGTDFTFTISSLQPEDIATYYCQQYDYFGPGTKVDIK
B13: G001_gp1_V10_VRC01c_179 (antibody, V domains shown)
VH: QVQLVQSGADVKKPGASVKVSCKASGYTFTDYYMHWVRQAPGQGLEWMGWINPNSGGTNYAQKFQDRVTMTRDTSVSTAYMEVSGLRSDDTAVYYCARIKLCNGGSCNWSLGYWGQGSLVTVSS
VL: B9 VL with T4M, H32Y, G43A, D50G, K55E, I74T
notes: also called G001-179
B14: G001_gp1_V10_VRC01c_2021-0087 (antibody, V domains shown)
VH: QVQLVQSGAEVKKPGASVKVSCKASGYTFTGNYIHWVRQAPGQGLEWVGWLNPNSGGTNYAQQFQGRVTMTRDTSISTAYMELNRLRSDDTAVFYCARGLWQWEFRYWGQGTLVTVSS
VL: DIVLTQSPGTLSLSPGERATLSCRASQSVSSSNLAWYQQKPGQAPRLLIYGASSRATGIPDRFSGSGSGTDFTLTISRLEPEDCAVYYCQQYEGFGGGTKVEIK
notes: also called G001-0087
B15: G001_LD_07A_VRC01c_59 (antibody, V domains shown)
VH: QVQLVQSGAEVKKPGTSVKVSCKASEYTFTGYYVHWVRQAPGQGLEWMGWINPNSGGTNYAQKFQGWVTMTRDTSISTAYMELSRLKSDDTAVYYCARSDYISSWYFGYWGQGTLVTVSS
VL: EIVMTQSPATLSVSPGERATLSCRASQSVSSNLAWYQQKPGQAPRLLIYGTSTRATGIPARFSGSGSGTEFTLTISSLQSEDFAVYYCQQYETFGQGTKVEIK
notes: also called G001-59
B16: G001_LD_07A_VRC01c_58 (antibody, V domains shown)
VH: QVQLVQSGAEVRKPGASVKVSCKASGYTFTDYYIHWVRQAPGQGLEWMGWINPNSGGTNYAQKFQGWVTMTRDTSISTAHMELRRLRSDDRAVYYCARGVVHSGFEFGYWGQGTLVTVSS
VL: DIQMTQSPSTLSASVGDRVTITCRASQSISNWLAWYQQKPGKAPKLLIYKASSLESGVPSRFSGSGSGTEFTLTISSLQPDDFATYYCQQYETFGQGTKVEIK
notes: also called G001-58

Where a chain is given by its changes, count along the chain named.

One assay concerns the target eOD-GT8 (engineered outer domain germline-targeting version 8), monomer (HIV-1 gp120 engineered outer domain, …).
Experiment: not given
Conditions: not given
B1: the binding result is “binds”.

On to B2, for which the binding result is on record as “binds”.

B3: the binding result is “binds”.

B4: the binding result is reported as “binds”.

In the case of B5, the binding result is “binds”.

B6: the binding result is listed as “binds”.

With B7, the binding result is “binds”.

For the molecule B8, the binding result is “binds”.

With B9, the binding result is “binds”.

As to B10, the binding result was “binds”.

Take B11: the binding result is reported as “binds”.

As for B12, the binding result is “binds”.

For the next assay the target is unchanged. The experiment in a line: SPR. The settings on record: both partners purified.
One may read the Kd as a measure of binding affinity in units of concentration. B13 yielded a Kd of 0.13 nM.

The molecule B14 returned a Kd of 0.15 nM.

On to B15, for which the Kd is 1.76 nM.

For the molecule B16, the Kd was found to be 0.437 nM.
